According to publication PMC4970318:
Blank lines part the entries; values can stand above or below the binder they belong to.

Assays:
RD1 = assay: competition
RD2 = assay: competition
FD3 = assay: competition
FD2 = assay: competition
FD1 = assay: competition
RD3 = assay: competition
[1] = molecular target: LPA2 6-mer (Homo sapiens); assay: competition
[2] = molecular target: Claudin23 10-mer (Homo sapiens)
CST = assay: competition
CAT = assay: competition
[3] = molecular target: LPA2 10-mer (Homo sapiens)

Ki (RD1): 1.8 µM
Ki (RD2): 2.7 µM
Ki (FD3): > 1000 µM
Ki (FD2): > 1000 µM
Ki (FD1): 600 µM
Ki (RD3): 6.8 µM
Ki [1]: 47.4 µM
Kd [2]: 3.6 µM
B1: MAGI-3 PDZ6 (M3P6) PDZ6, Q5TCQ9 (protein)
chain: GCYPVELERGPRGFGFSLRGGKEYNMGLFILRLAEDGPAIKDGRIHVGDQIVEINGEPTQGITHTRAIELIQAGGNKVLLLLRPGTGLI

Ki (CST): 54.8 µM
Ki (RD1): 5.4 µM
Ki (CAT): 254 µM
Ki (RD2): 12.5 µM
Ki (FD3): 9.1 µM
Ki (FD2): 6.8 µM
Ki (FD1): 14.2 µM
Ki (RD3): 4.6 µM
Ki [1]: 28.4 µM
Kd [3]: 11.5 µM
Kd (FD2 8-mer): 3.6 µM
B2: NHERF-2 PDZ2 (N2P2) PDZ2, Q15599 (protein)
chain: LRPRLCHLRKGPQGYGFNLHSDKSRPGQYIRSVDPGSPAARSGLRAQDRLIEVNGQNVEGLRHAEVVASIKAREDEARLLVVDPETD
